17 sequences from the DeepSol protein solubility set can be followed below.

This series can be described thus: soluble on expression in E. coli; label from the status in PepcDB or PDB records.
With “GPGSMTHNRSGAVRRKVVQHDFYDSADQVGGVVLLNNPTNGSWEYDEYLRLLTTKRYSRIPSWEAHSTAQCYFVCADGVYPKLQSYVKERQVSHPHLRLFQFFPLCDAVIGDMDSYVTSYEKDGCERPSSTPEGGYGTVDDIPVEVLDTIHHRCRSAAALFREVDGSVPDTPLNGWKMLHEEHSHPLLRPLWLHIQCQITTDFKKALTLLKRLRKRYPDENAVVLPPVLRSPGAARILETGGGVVDQRNCGCDNDPIQERELCVAASQVEALLLPTVVAVGAFGGRFDHEVGAISTMLSESHDAHIVLINLFNTVFACQGGGWTQIVRQPEYEDKTCGLVNYGRMTECETSGLLWNVVKGRGRPSVTNDFVFDFGAFISVCNIVRREVITVDLRCLLTSVGESPADATTATGASDCEAQRGRGPPVVFSILRRQKKEGG”, the “soluble on expression in E. coli” value is “not soluble”.

“MSLMTLYPVVVQERTTGEVLMLAYANEEALELTKKTGYAHFFSRERQKIWKKGETSGNTMRVVEIRRDCDDDAYLYIVDFPEDKVACHTGNRSCFFKVEHRFEETGSPTFWLELYRLVRKRKEEMPEGSYTVKLFKEGKGKIAKKFGEEAVEVITGYLQNDRENLVWEIADMMYHLTVLMADAGVTVQDVMRELEKRRKEGHHHHHH”: the “soluble on expression in E. coli” value is “soluble”.

Turning to “GHHHHHHHHHHGLVPRGSHMYFQKARLIHAELPLLAPFKTSYGELKSKDFYIIELINEEGIHGYGELEAFPLPDYTEETLSSAILIIKEQLLPLLAQRKIRKPEEIQELFSWIQGNEMAKAAVELAVWDAFAKMEKRSLAKMIGATKESIKVGVSIGLQQNVETLLQLVNQYVDQGYERVKLKIAPNKDIQFVEAVRKSFPKLSLMADANSAYNREDFLLLKELDQYDLEMIEQPFGTKDFVDHAWLQKQLKTRICLDENIRSVKDVEQAHSIGSCRAINLKLARVGGMSSALKIAEYCALNEILVWCGGMLEAGVGRAHNIALAARNEFVFPGDISASNRFFAEDIVTPAFELNQGRLKVPTNEGIGVTLDLKVLKKYTKSTEEILLNKGWS”, the “soluble on expression in E. coli” value was “soluble”.

With “MSNTLNHTSSRQIVRHYTHSQKRCKHLMQYFVSANGLFELKVKIYAFLFSMILEGKCRSVSIIADISCFFLFHFHAIRNAFYSIHPTYRAEGENERLTLLLIAQGYALSL”, the “soluble on expression in E. coli” value is listed as “not soluble”.

Turning to “MAISSVGFACRSFSPVRTLQSHCLWKIRFNTVAAAIETMDESDGFATDSDRQDKVSDEPRDREWKQLNSKDLGLSSSMIAKSTRKVLNGLKSKGHDVYLVGGCVRDLILKRTPKDFDILTSAELREVSSFSTSAQNSSRNTRTECKESSGSDGDEDCIRLNNCLQRDFTINGLMFDPYAKVVYDYLGGMEDIRKAKVRTVIHAGTSFHQDCARILRAIRIAARLGFRMSKETAHFIKNLSLLVQRLDKGRILMEMNYMLAYGSAEASLRLLWKFGILEILLPIQAAYLARSGFRRRDKRTNMLLSLFANLDKLLAPDRPCHSSLWIAILAFHKALADKPRSPIVVAAFSLAVHNCGDILEAVEITKKITRPHDKSFFELVEPEENLDFQTLLDEVMDLDASIEDALNQMTDAYFISKAMSAYPQAPYSDLVFIPLQLYLRAGRIFDCVKNEETRIGFEAKQGSKIEYGSLNSGYFPEIRHVFARVVFDTVFPLNLSQEL”, the “soluble on expression in E. coli” value is “soluble”.

As for “MLRSLLIRATAPAVCAGLLWTAAPAHAQSPAPTRPVSSDTWADRATGTYRALQKHLYEGPGDHGLYLEHTPRQATDQEHSYLWPFREAAQAAVDMQRLPRTGPAYRQDAAERFDTAELYHTGGERPGYRSYLPAPLGTGGDVYYDDNAVVALSQLDQYEETGDARYLRRAEQVVPVVSRAWDGDAAKACPGGMDWYDAPGNTIRATNVTALSAQLAARLYEHTRNRAYLDKAEQWYGWVYACMRKAPGLYVNDRGDDGSTNETLWTYNSGAMIGTATALYRGTGDARYLEKAVADARGSLAYWTGGTRLHDQPAVFNAFYFKDLLDLDAVRPDSAYLSAMSAYADNTYRSNRDASSGLFRFQPSNGGDYDPAAPAATLNQSAMVQIFATLADATRRDHRTSLEHHHHHH”, the “soluble on expression in E. coli” value is recorded as “not soluble”.

For the sequence “MSLSDDDVDNVIEVARDSWKWTYKDIYSDEFIENWISEKYSKEKLLNEITKSQLNLDLVFLGSFHESKLIGFIELKISSSKAELLRLYLRPEYTHRGVGRILLSEAEELVKKRDVEECILYVHKKNYIATSFYKKNGFQVKDIYGDDLIMIKRYKVEGHHHHHH”, the “soluble on expression in E. coli” value is given as “not soluble”.

Take “MARVAIVGTGPTGIYTFFNLIQTDPSHHITLFERGEKAGIGLPYSPEAASKSMLANIASIEIPPIEATYLDWLKGQPDAKLRAYGLDRAELDDRQFTPRLLLGEYFRDQLLSLLDRHRARTEVLETTEVTDVIARNDALFLRAAEREFGPFDRVILATGHVFPDADEATRSYFPSPWSGLIQAEVPPVSVGIMGTSLSSIDAAMAVANQHGRFRRHGEELTFEPATEGLHLTLMSWSGVLPEADFWCPIPYEPLQVMTDDAVAQCAAQADPLDRVFALLQEEIAQADPAYADRIGLATLTADTFGDAYFAAREAQDPFRWARRNLEEVEHNKAHQITVPWRYALLRMHEKVETLVPHLGDADRKRFDGGLKKVFVDNYAAVPSESIRRLLALRDAGLLSVLALGEDYELKREPDRTVIHAKGKTHVFPVFIDARGQKPMESRDMPFPSLRRALMGSKQDIPELDADFALVGVPDYDRHAHLAAIPYLMHDRPFVQGITASAEIGATIARGISQAVGDRAAQGGRRSSAPVVATGLEHHHHHH”: the “soluble on expression in E. coli” value was “soluble”.

For “MGPTQETYTIVRYQSGTFSKQLDEIVTESPITIKLNGEEYVTVVCTPNYIEDMVIGFLISEGIISSYNDVEELWVQKDNGIVHVKSSKVNPLYQTLYNKRYVTSCCGKGRQGFIFVNDAAKAKDLHDIHVKITPEECFYLMNTLQQSSTTFRQTGGVHNTALCDRNKILLSRMDIGRHNALDKIYGHCLRNDISVKGKIIAFSGRISSEILLKVSKIGCEIVLSKSAPTKLALQLAHDLGITVVGFIRNESCNIYTHPHRIDGYQSNN”, the “soluble on expression in E. coli” value is on record as “not soluble”.

As to “MSSKIFCKSWGAEYIAADVVRFRLWATGQQKVMLRLAGKDQEMQANGDGWFTLDVAGVTPGTEYNFVLSDGMVVPDPASRAQKTDVNGPSYVVDPGSYTWRNTGWKGSRWEQAVVYEMHTGTFTPEGTFRAAIAKLPYLAELGVTVIEVMPVAQFGGERGWGYDGVLLYAPHSAYGTPDDFKAFIDAAHGYGLSVVLDIVLNHFGPEGNYLPLLAPAFFHKERMTPWGNGIAYDVDAVRRYIIEAPLYWLTEYHLDGLRFDAIDQIEDSSARHVLVEIAQRIREDITDRPIHLTTEDSRNIISLHPRDQDGNAPLFTAEWNDDFHNAVHVFATGETQAYYNDFADAPEKHLARALAEGFAYQGEISPQTGEPRGVKSTGQPPVAFVDFIQNHDQVGNRAQGDRLITLAGAERTKVLLATLLLSPHIPLLFMGEEYGESRPFLFFTDFHGDLARAVREGRAKEFADHAGENVPDPNAPETFQRSKLNWKQQHSEEGKAWLAFTRELLLLRQKHIVPLLSAARESSGTVLQTAPGFIAVSWRFPGGTLSLALNISATTVLLPDLPGKTLFAWPNESTGSLSQHSLIVRLAQGESAS”, the “soluble on expression in E. coli” value was “not soluble”.

For “MAIPGNMWIYDDGGALIKGGCDVADREFSIEFKGFHHNLSIPTDHATGKPTGTRQHSPMIIVKEFDYSSPYLYKAVATGQNLKSAEIKWYKISDAGQEVEYFNMLLEGVRIVSISPTMASPEDKNNNHLESVELRYEKITWKHCDGNIIFTDAWNERQTA”, the “soluble on expression in E. coli” value was “not soluble”.

On to “MGHHHHHHSHKWELCPVTIISWLNLFLQVDALKDAPKVLLPQYSQETFIQIAQLLDLCILAIDSLEFQYRILTAAALCHFTSIEVVKKASGLEWDSISECVDWMVPFVNVVKSTSPVKLKTFKKIPMEDRHNIQTHTNYLAMLEEVNYINTFRKGGQLSPVCNGGIMT”, for which the “soluble on expression in E. coli” value is “not soluble”.

Take “MYKIMPLKVAEISVPLGVTIMMGDMRVMATGPVYVWVIDGGDEKIVVDSGVEEAKNGMFHGFPGKGGGEKGLREAMEKVNLKPEDVDKLIITHLHFDHAANAKLFTNARIYVQKREWESALNPPLHYRQTYDSSMLYPLEEMDLCLIDGDVEIAEGVKAVLLPGHTKGLQGVAVETEKGTYLLAADHFYTYFNFFPPKQPIQMTDTAGNTVEIPTSPLPFLPPGLHVDLSEWYESCFKALSVAKKANILPGHDPSLEGRVFPLEHHHHHH”: the “soluble on expression in E. coli” value is reported as “not soluble”.

“MGSDKIHHHHHHMISRTIQQLEDALGQQLFYRNTRAITPTESGKLFFEYAKRITEQFDEAQKALQDKTIEPSGLVRINAPVFFGQRHIAPWLAGLSERYPRLLIELIQTDEFIDPLRESTDLIFRIGALTDSSFHARIFGTQKYHLAASPQYVAKYGTLDHPTELNQHKCLVYKGFEGPNRWLVRKPNEEWVHYPITPLLSSNNAESLMTAALHSMGIVLFPDWLIGEALKKGDLIKLLPEYEVAIKSPPQHIAAIYPNVRHPPLNIRAVIDYFAEIYGDTPYWQN”: the “soluble on expression in E. coli” value is reported as “not soluble”.

Consider “MKVVPAQRCVYSFSANMAPVEEVYPGEQVVFETLDALGGSYDKIDFSKVNPATGPVFVNGVKPGDTLKVRIKRIELPRRGMIVTGKGFGVLGDEVEGFHTKELEIEKWAVLFDGVRIPIHPMVGVIGVAPQEGEYPTGTAHRHGGNMDTKEITENVTVHLPVFQEGALLALGDVHATMGDGEVCVSACEVPAKVVVEIDVSKEEIKWPVVETNDAYYIIVSLPDIEEALKEVTRETVWFIQRRKTIPFTDAYMLASLSVDVGISQLVNPAKTAKARIPKYIFTGVLEHHHHHH”, for which the “soluble on expression in E. coli” value is “not soluble”.

For “MANLTRRQWLKVGLAVGGMVTFGLSYRDVAKRAIDGLLNGTSGKVTRDRIFGNALIPEAQAQTHWQQNPQQTIAMTQCFGCWTQCGIRARVNADGKVIRIAGNPYHPLSQEHPIDSSVPFSEAMEQLAGESGLDARSTACARGATLLESLYSPLRLLEPMKRVGKRGEGKWQRISFEQLIEEVVEGGDLFGEGHVDGLRAIHAPDTPIDAKHPSFGPKTNQLLVTNTSDEGRDAFLRRFALNSFGSKNFGAHGAYCGLAYRAGSGALMGDLDKNPHVKPDWENVEFALFMGTSPAQSGNPFKRQARQLASARLRENFQYVVVAPALPLSTVLADPRGRWQPVMPGSDSALAMGMIRWIMDNQRYNADYLAIPGVQAMQQAGEQSWTNATHLVIADELPTLAGQHLTLRHLTPDGEETPVVLNTDGELVDASTCRQARLFVTQYVTLADGQRVTVKSGLQRLKEAAEKLSLAQYSEQCGVPEAQIIALAETFTSHGRKAAVISHGGMMAGNGFYNAWSVMMLNALIGNLSLSGGVFVGGGKFNGVSDGPRYNMNSFAGKVKPSGLSIARSKTAYEASEEYRDKIAGGQSPYPAKAPWYPFVAGQLTELLTSALEGYPYPLKAWISNMSNPFYGVPGLRAVAEEKLKDPRRLPLFIAIDAFMNETTALADYIVPDTHNFESWGFTAPWGGVASKATTARWPVVAPATHRTADGQPVSMEAFCIAVAKRLHLPGFGDRAITDPQGNTFPLNRAEDFYLRVAANIAFMGKTPVALANQEDISLTGVSRILPAIQHTLKADEVGRVAFIYSRGGRFAPEDSGYTEQRLGNAWKKPLQIWNADVAAHRHAITGERFSGCPVWYPARLSDGRAIDDQFPIGQWPLKLISFKSNTMSSSTAVIPRLHHVKPANLVALNPQDGERYGLQHGDRVRIITPGGQVVAQISLLNGVMPGVIAIEHGYGHREMGATQHSLDGVPMPYDPQIRAGINLNDLGFADPTRTITNTWLDWVSGAAVRQGLPAKIERI”, the “soluble on expression in E. coli” value is recorded as “not soluble”.

With “MDSRPGLRTTSPSSGTRTGRSNTRTLPPDPLLECAGRTRWPFGIREPDEDYPVTIIETEGFLNLVSVSAVALNQPFSLFFGAGVVLIPVRFECMRTPPVPAGRGGRVIRIVKFGIVRHLFSLLAQQVPVVQADGWIVNQNDQKKQNPPKRVKCGCVEDA”, the “soluble on expression in E. coli” value is recorded as “not soluble”.
